Tests used:
Experiment in all cases: SPR; Fc-tagged CD3E/D variants captured on a C1 chip by amine-coupled anti-human Fc or anti-murine Fc pAb; concentration series of Fab; HBS pH 7.4, 0.05% Tween-20, 1 g/L BSA, 37 °C; 1:1 Langmuir model with mass transport
Conditions in all cases: both partners purified
[1] = target: T1, Fc-tagged murine CD3E/D heterodimer (Mus musculus, UniProt P22646;P04235)
T1 construct: CD3 epsilon, mouse; CD3 delta, mouse; also called mCD3E/D; source: Expi293, transiently co-expressed, purified (MabSelect Sure LX, Superdex 200)

[2] = target: T2, chimeric human/murine CD3E - murine CD3D Fc-tagged heterodimer (Mus musculus CD3E/D with human CD3E …, UniProt P07766;P22646;P04235, chimera)
T2 construct: CD3 epsilon, mouse, with a 5-residue N-terminal stretch replaced by an 11-residue stretch of human CD3E; CD3 delta, mouse; also called Chimeric human/murine CD3E/D; h/mCD3E-mCD3D; source: Expi293, transiently co-expressed, purified (MabSelect Sure LX, Superdex 200)

[3] = target: T3, Fc-tagged human CD3E/D heterodimer (Homo sapiens, UniProt P07766;P04234)
T3 construct: CD3 epsilon, human; CD3 delta, human; also called hCD3E/D; source: Expi293, transiently co-expressed, purified (MabSelect Sure LX, Superdex 200)

[4] = target: T4, Fc-tagged cyno CD3E/D heterodimer (Macaca fascicularis, UniProt Q95LI5;Q95LI8)
T4 construct: CD3 epsilon, cynomolgus monkey; CD3 delta, cynomolgus monkey; source: Expi293, transiently co-expressed, purified (MabSelect Sure LX, Superdex 200)
T4 sequence (Q95LI5 22-198, chain 1 of 2): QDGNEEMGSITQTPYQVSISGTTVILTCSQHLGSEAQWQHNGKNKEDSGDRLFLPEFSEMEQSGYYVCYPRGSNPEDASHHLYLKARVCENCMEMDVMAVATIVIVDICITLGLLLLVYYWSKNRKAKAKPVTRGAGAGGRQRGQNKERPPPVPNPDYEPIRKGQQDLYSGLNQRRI
T4 sequence (Q95LI8 22-171, chain 2 of 2): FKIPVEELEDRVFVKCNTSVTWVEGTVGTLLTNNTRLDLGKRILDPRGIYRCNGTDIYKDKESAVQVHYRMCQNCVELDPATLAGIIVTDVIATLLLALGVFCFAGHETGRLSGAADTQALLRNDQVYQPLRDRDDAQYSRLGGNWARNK

T3 sequence (P07766 23-207, chain 1 of 2): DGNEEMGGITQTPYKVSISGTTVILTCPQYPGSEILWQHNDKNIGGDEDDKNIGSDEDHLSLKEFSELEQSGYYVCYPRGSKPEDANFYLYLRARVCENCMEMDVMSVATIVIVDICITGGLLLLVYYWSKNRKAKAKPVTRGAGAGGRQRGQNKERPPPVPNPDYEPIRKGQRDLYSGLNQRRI
T3 sequence (P04234 22-171, chain 2 of 2): as the sequence (Q95LI8 22-171, chain 2 of 2) above, with V5I, K15N, V20I, T32S, N33D, N34I, A64T, N74S, L83V, R141H counted along it
T2 sequence (P22646 22-189, stated change not applied, chain 1 of 2): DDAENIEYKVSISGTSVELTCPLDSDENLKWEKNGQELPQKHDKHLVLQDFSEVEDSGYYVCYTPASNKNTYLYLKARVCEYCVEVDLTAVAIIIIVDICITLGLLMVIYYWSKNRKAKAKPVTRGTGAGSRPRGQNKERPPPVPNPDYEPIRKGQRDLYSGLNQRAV
T2 sequence (P04235 22-173, stated change not applied, chain 2 of 2): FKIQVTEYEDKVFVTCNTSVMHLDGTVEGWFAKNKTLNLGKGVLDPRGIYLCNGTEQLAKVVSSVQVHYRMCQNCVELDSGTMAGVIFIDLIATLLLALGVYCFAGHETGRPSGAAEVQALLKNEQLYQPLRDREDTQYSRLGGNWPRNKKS
T1 sequence (P22646 22-189, chain 1 of 2): as the sequence (P22646 22-189, stated change not applied, chain 1 of 2) above
T1 sequence (P04235 22-173, chain 2 of 2): as the sequence (P04235 22-173, stated change not applied, chain 2 of 2) above

Row | Binder | binding result [1] | Kd [2] [nM] | Kd [3] [nM] | Kd [4] [nM] | Kd [1] [nM] | binding result [3] | binding result [4]
1 | hCD3.5 Fab (Fab, V domains shown, VH of hCD3.5; CH1 of the Fab; VL of hCD3.5; CL of the Fab; Anti-human CD3 arm of a clinical T-cell engager; cloned in pTT5 with an N-terminal osteonectin signal peptide; source: Expi293, transient, purified (Ni Sepharose excel, Superdex 200)) VH: not shown VL: QAVVTQEPSLTVSPGGTVTLTCGSSTGAVTTSNYANWVQEKPGQAFRGLIGGTNKRAPGTPARFSGSLLGGKAALTLSGAQPEDEAEYYCALWYSNLWVFGGGTKLTVL | no binding | 4.4 ± 0.27 | 4.1 ± 0.44 | 5 ± 0.5 |  |  | 
2 | hCD3.2 Fab (Fab, V domains shown, VH of hCD3.2; CH1 of the Fab; VL of hCD3.2; CL of the Fab; Anti-human CD3 arm of a clinical T-cell engager; cloned in pTT5 with an N-terminal osteonectin signal peptide; source: Expi293, transient, purified (Ni Sepharose excel, Superdex 200)) VH: EVQLVESGGGLVQPGGSLRLSCAASGFTFNTYAMNWVRQAPGKGLEWVARIRSKYNNYATYYAASVKGRFTISRDDSKNSLYLQMNSLKTEDTAVYYCARHGNFGNSYVSWFAYWGQGTLVTVSS VL: QTVVTQEPSLTVSPGGTVTLTCRSSTGAVTTSNYANWVQQKPGQAPRGLIGGTNKRAPGTPARFSGSLLGGKAALTLSGVQPEDEAEYYCALWYSNLWVFGGGTKLTVL | no binding | 4.2 ± 0.22 | 3.1 ± 0.35 | 3.8 ± 0.61 |  |  | 
3 | SP34 Fab (Fab, V domains shown, VH of SP34; CH1 of the Fab; VL of SP34; CL of the Fab; Cyno cross-reactive anti-human CD3 clone; cloned in pTT5 with an N-terminal osteonectin signal peptide; source: Expi293, transient, purified (Ni Sepharose excel, Superdex 200)) VH: EVQLVESGGGLVQPKGSLKLSCAASGFTFNTYAMNWVRQAPGKGLEWVARIRSKYNNYATYYADSVKDRFTISRDDSQSILYLQMNNLKTEDTAMYYCVRHGNFGNSYVSWFAYWGQGTLVTVSA VL: QAVVTQESALTTSPGETVTLTCRSSTGAVTTSNYANWVQEKPDHLFTGLIGGTNKRAPGVPARFSGSLIGDKAALTITGAQTEDEAIYCALWYSNLWVFGGGTKLTVL | no binding | 7.3 ± 0.18 | 6.6 ± 0.46 | 7.5 ± 0.06 |  |  | 
4 | 2C11 Fab (Fab, V domains shown, VH of 2C11; CH1 of the Fab; VL of 2C11; CL of the Fab; Murine surrogate anti-CD3 clone; cloned in pTT5 with an N-terminal osteonectin signal peptide; also called m2C11; source: Expi293, transient, purified (Ni Sepharose excel, Superdex 200)) VH: EVQLVESGGGLVQPGKSLKLSCEASGFTFSGYGMHWVRQAPGRGLESVAYITSSSINIKYADAVKGRFTVSRDNAKNLLFLQMNILKSEDTAMYYCARFDWDKNYWGQGTMVTVSS VL: DIQMTQSPSSLPASLGDRVTINCQASQDISNYLNWYQQKPGKAPKLLIYYTNKLADGVPSRFSGSGSGRDSSFTISSLESEDIGSYYCQQYYNYPWTFGPGTKLEIK |  | 250 ± 16 |  |  | 22 ± 1.4 | no binding | no binding
5 | hCD3.1 Fab (Fab, V domains shown, VH of hCD3.1; CH1 of the Fab; VL of hCD3.1; CL of the Fab; Anti-human CD3 arm of a clinical T-cell engager; cloned in pTT5 with an N-terminal osteonectin signal peptide; source: Expi293, transient, purified (Ni Sepharose excel, Superdex 200)) VH: EVQLVESGGGLVQPGGSLRLSCAASGFTFSDYYMTWVRQAPGKGLEWVAFIRNRARGYTSDHNPSVKGRFTISRDNAKNSLYLQMNSLRAEDTAVYYCARDRPSYYVLDYWGQGTTVTVSS VL: DIVMTQSPDSLAVSLGERATINCKSSQSLFNVRSRKNYLAWYQQKPGQPPKLLISWASTRESGVPDRFSGSGSGTDFTLTISSLQAEDVAVYYCKQSYDLFTFGSGTKLEIK | no binding | 8.6 ± 0.53 | 6.3 ± 0.18 | 6.5 ± 0.11 |  |  | 
6 | hCD3.4 Fab (Fab, V domains shown, VH of hCD3.4; CH1 of the Fab; VL of hCD3.4; CL of the Fab; Anti-human CD3 arm of a clinical T-cell engager; cloned in pTT5 with an N-terminal osteonectin signal peptide; source: Expi293, transient, purified (Ni Sepharose excel, Superdex 200)) VH: QVQLVQSGAEVKKPGASVKVSCKASGFNIKDYYMHWVRQAPGQRLEWMGWIDLENGNTIYDPKFQGRVTITRDTSASTAYMELSSLRSEDTAVYYCARDGYGRYFYDVWGQGTLVTVSS VL: DIVMTQSPDSLAVSLGERATINCKSSQSLLNSRTGKNYLAWYQQKPGQPPKLLIYWASTRESGVPDRFSGSGSGTDFTLTISSLQAEDVAVYYCKQSYSRRTFGGGTKVEIK | no binding | 3.1 ± 0.23 | 2.7 ± 0.45 | 2.7 ± 0.02 |  |  | 

— paper PMC8894342, “Humanization of a strategic CD3 epitope enables evaluation of clinical T-cell engagers in a fully immunocompetent in vivo model” (Scientific Reports, 2022)
